Results on one molecule are retold here after EP4674869A1 (Immuneoncia Therapeutics, Inc., dated 2026).

In assay [1] the target is T1, CD47 (UniProt Q08722 19-323, limits assumed).
T1 construct: whole, on cells; also called CD47 on cancer cells (MDA-MB-231, Raji)
As to the kind of experiment: binding to Raji cancer cells; method not stated.

The target in assay [2] is T1, CD47. As to the kind of experiment: binding to MDA-MB-231 cancer cells; method not stated.

T1 sequence (Q08722 19-323 limits assumed): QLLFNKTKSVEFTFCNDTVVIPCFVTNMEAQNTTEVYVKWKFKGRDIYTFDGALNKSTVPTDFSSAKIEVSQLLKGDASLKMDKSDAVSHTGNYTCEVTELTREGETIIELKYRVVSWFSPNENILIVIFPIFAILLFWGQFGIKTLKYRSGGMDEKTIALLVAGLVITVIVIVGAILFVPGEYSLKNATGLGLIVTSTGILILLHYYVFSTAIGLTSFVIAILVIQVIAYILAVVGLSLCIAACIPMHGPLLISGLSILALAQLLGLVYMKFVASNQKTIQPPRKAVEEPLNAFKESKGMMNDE

B1: IMC-002 (antibody, human IgG4 S228P, lambda, V domains shown)
VH: QVQLVQSGAEVKKPGASVKVSCKASGYTFTSYYMHWVRQAPGQGLEWMGIINPSGGSTSYAQKFQGRVTMTRDTSTSTVYMELSSLRSEDTAVYYCARSTLWVSEFDYWGQGTLVTVSS
VL: QSALTQPASVSGSPGQSISISCTGTSSDVGGHNYVSWYQQHPGKAPKLMIYDVRNRPSGVSNRFSGSKSGSTASLTISGLQTEDEADYYCNSYTGSRTYVFGSGTKLTVLG
notes: Fully human IgG4 kappa antibody with an S228P hinge mutation; also called anti-CD47 antibody; C47B10-H3-D4
Turning to B1, the EC50 (usually the midpoint of the concentration-response curve) stood at 4.77 µg/mL in assay [1] and 5.73 µg/mL in assay [2].
